Where a chain is given by its changes, count along the chain named.

For data set [1], the target named is T1, FOXK2(228-382) (UniProt Q01167 228-382). Kind of data set: EMSA; competition; labelled WT probe; unlabelled WT competitor 25-200x; EMSA: 75 mM KCl, room temperature 30 min, 5% PAGE in 0.25x TBE at 4 C; pull-down conditions not in material. Conditions: protein: recombinant; tags: 6xHis; label: radioactive label (probe); 5' overhang 4 nt at both ends. For orientation: A gel shift assay detects complexes by their altered migration in electrophoresis.
T1 sequence (Q01167 228-382): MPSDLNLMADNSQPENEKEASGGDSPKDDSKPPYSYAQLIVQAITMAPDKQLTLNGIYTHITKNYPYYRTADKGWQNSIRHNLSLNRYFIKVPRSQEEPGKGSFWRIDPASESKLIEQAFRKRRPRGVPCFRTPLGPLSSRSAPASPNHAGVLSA

Data set [2] deals with T2, FOXO3(130-271) (UniProt O43524 130-271). Described as above. The settings on record: protein: recombinant; tags: 6xHis; label: radioactive label (probe); 5' overhang 4 nt at both ends.
T2 sequence (O43524 130-271): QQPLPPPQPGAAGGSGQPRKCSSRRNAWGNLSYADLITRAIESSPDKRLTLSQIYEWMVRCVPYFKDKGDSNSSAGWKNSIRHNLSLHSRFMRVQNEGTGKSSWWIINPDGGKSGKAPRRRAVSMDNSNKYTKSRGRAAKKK
In data set [3] the target is T1, FOXK2(228-382). As to the kind of experiment: competition; unlabelled competitor 25-200x; competes equally to WT; EMSA: 75 mM KCl, room temperature 30 min, 5% PAGE in 0.25x TBE at 4 C; pull-down conditions not in material. The settings on record: protein: recombinant; tags: 6xHis; 5' overhang 4 nt at both ends.
The target in data set [4] is T2, FOXO3(130-271). The data set is described as above. Conditions: protein: recombinant; tags: 6xHis; 5' overhang 4 nt at both ends.

B1: CYP27C1 WT (ADS2782/ADS2783) (dsDNA)
DNA 1: CTAGAACATGTTAATGTAAACAAGGAAGCCTG
DNA 2: CTAGCAGGCTTCCTTGTTTACATTAACATGTT
B1: the binding result with FOXK2(228-382) [1] and in the data set with FOXO3(130-271) [2] was “binds” in each case.

B2: CYP27C1mut2 (ADS3739/ADS3740) (dsDNA)
DNA 1: B1 DNA 1 with A23G, G24A
DNA 2: B1 DNA 2 with C13T, T14C
Take B2: the binding result with FOXK2(228-382) [3] and in the data set with FOXO3(130-271) [4] was “binds” throughout.

B3: CYP27C1mut1 (ADS3737/ADS3738) (dsDNA)
DNA 1: B1 DNA 1 with A14G, T15G
DNA 2: B1 DNA 2 with A22C, T23C
B3: the binding result in the data set with FOXO3(130-271) [4] is reported as “binds”.
